Columns and labels:
AUC = molecular target: the molecule itself; experiment: AUC
SEC = molecular target: the molecule itself; experiment: SEC

B1: α-mDelNT, N-terminal half of mouse α-Delphilin (aa 1-558) (domain or fragment, UniProt Q0QWG9-2 1-558, looked up)
chain: MSCLGIFIPKKHRARFDEVVSQGLLGKLCRARRAQGAQRLRRSRSEERPERLLVSTRASAAPRRPDEPPPRKATSLLGGRTGPGGPRRTVRVYKGNKSFGFTLRGHGPVWIESVLPGSPAENASLKSGDRILFLNGLDMRNCSHDKVVSMLQGSGAMPTLVVEEGPVPFASDSDSLDSPTRASALTSLQWVADILPSSIRVQGRTFSQQLDHLLTPPERYGVCRALERFFQHRNIDTLIVDVYPVLDTPAKQVLWQFLYQLLTYEEQELCQEKIACFLGYTAMTEPESSLDLEPESTPEPTPEPQPRSSLRASSMCRRSLRSQGLETSLSCGPGDCPEMPLPLIPGERQAGDGTSLPETPNPKMMSAVYAELESRLNSSFKGKIGTMSKSRASPPVPSLVGTSGPRTLSGVSWPSDRLLPSPCYDPLCSGGLASPSSSESHPYASLDSSRAPSPQPGLGSIHADSPPSPDPIRPPSRRKLFAFSRPVRSRDTDRFLDALSEQLGPRLSIVDDFLTPENDYEEMSFHDDQGSFVTNERSSASECVSSSEEGSSLTYSSI
- stoichiometry N (AUC): 6
- stoichiometry N (SEC): 7 ± 1 subunits
